Results on three substances are retold here after paper PMC10772716.

What all share (experiment): SEC-MALS
The target in test [1] is cMyBP-C C3C6 domains, E542Q variant (human) (UniProt Q14896).
For test [2], the target named is cMyBP-C C3C6 domains, N755K variant (human) (UniProt Q14896).
Test [3] has as its target cMyBP-C C3C6 domains, R820Q variant (human) (UniProt Q14896).

The stoichiometry N is the number of molecules, sites or subunits per partner or assembly. Substance “cMyBP-C C3C6 domains, E542Q variant (from UniProt Q14896 1-1274) (domain or fragment)” registered a stoichiometry N in test [1] of 2.
Take “cMyBP-C C3C6 domains, N755K variant (from UniProt Q14896 1-1274) (domain or fragment)”: in test [2], the stoichiometry N stood at 2.
In test [3], “cMyBP-C C3C6 domains, R820Q variant (from UniProt Q14896 1-1274) (domain or fragment)” registered a stoichiometry N of 2.
